Test results from patent publication US20220227866A1 (VELOSBIO, published 2022).
Where “and” joins values, the source holds several entries; their conditions need not be identical. Equal values may be shown once.

B1: Bispecific construct 10 (bispecific antibody, human IgG1, kappa)
heavy: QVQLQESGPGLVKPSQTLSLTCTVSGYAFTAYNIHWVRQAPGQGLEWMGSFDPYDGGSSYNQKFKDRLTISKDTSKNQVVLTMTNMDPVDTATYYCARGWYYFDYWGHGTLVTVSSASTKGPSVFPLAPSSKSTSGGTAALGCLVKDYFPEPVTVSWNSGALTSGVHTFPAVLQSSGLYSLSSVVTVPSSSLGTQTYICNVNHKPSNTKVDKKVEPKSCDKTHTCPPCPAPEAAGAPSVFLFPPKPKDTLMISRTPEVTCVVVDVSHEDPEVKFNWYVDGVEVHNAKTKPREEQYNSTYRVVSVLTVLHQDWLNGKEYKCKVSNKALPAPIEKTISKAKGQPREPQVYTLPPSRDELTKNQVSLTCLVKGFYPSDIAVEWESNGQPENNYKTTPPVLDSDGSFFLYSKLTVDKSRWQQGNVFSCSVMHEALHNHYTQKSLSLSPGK
light: DIVMTQTPLSLPVTPGEPASISCRASKSISKYLAWYQQKPGQAPRLLIYSGSTLQSGIPPRFSGSGYGTDFTLTINNIESEDAAYYFCQQHDESPYTFGEGTKVEIKRTVAAPSVFIFPPSDEQLKSGTASVVCLLNNFYPREAKVQWKVDNALQSGNSQESVTEQDSKDSTYSLSSTLTLSKADYEKHKVYACEVTHQGLSSPVTKSFNRGECGGGGSGGGGSQVQLVQSGGGVVQPGRSLRLSCKASGYTFTRYTMHWVRQAPGKCLEWIGYINPSRGYTNYNQKVKDRFTISRDNSKNTLYLQMDSLRAEDTAVYYCARYYDDHYSLDYWGQGTTVTVSSGGGGSGGGGSGGGGSGGGGSDIQMTQSPSSLSASVGDRVTITCSASSSVSYMNWYQQKPGKAPKRWIYDTSKLASGVPSRFSGSGSGTDFTFTISSLQPEDIATYYCQQWSSNPFTFGCGTKLEIK
notes: disulfide-stabilized anti-CD3 scFv Ab8; ROR1 arm Ab1; valency 2/2
B2: Bispecific construct 11 (bispecific antibody, human IgG1, kappa)
heavy: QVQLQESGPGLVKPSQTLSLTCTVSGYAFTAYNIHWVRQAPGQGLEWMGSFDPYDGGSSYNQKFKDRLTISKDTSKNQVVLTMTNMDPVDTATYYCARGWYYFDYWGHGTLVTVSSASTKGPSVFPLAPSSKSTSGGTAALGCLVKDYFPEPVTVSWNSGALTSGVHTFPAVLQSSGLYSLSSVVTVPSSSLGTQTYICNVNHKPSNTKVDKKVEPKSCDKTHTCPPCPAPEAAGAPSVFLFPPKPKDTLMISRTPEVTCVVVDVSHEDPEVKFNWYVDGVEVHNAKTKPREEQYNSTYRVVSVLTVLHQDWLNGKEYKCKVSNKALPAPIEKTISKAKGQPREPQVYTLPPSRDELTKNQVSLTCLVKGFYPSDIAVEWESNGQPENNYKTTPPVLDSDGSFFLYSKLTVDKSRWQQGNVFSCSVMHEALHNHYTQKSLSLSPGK
light: DIVMTQTPLSLPVTPGEPASISCRASKSISKYLAWYQQKPGQAPRLLIYSGSTLQSGIPPRFSGSGYGTDFTLTINNIESEDAAYYFCQQHDESPYTFGEGTKVEIKRTVAAPSVFIFPPSDEQLKSGTASVVCLLNNFYPREAKVQWKVDNALQSGNSQESVTEQDSKDSTYSLSSTLTLSKADYEKHKVYACEVTHQGLSSPVTKSFNRGECGGGGSGGGGSQVQLVQSGAEVKKPGASVKVSCKASGYTFTRYTMHWVRQAPGQCLEWMGYINPSRGYTNYNQKFKDRVTLTTDKSSSTAYMELSSLRSEDTAVYYCARYYDDHYSLDYWGQGTLVTVSSGGGGSGGGGSGGGGSGGGGSDIQMTQSPSSLSASVGDRVTITCSASSSVSYMNWYQQKPGKAPKRLIYDTSKLASGVPSRFSGSGSGTDFTLTISSLQPEDFATYYCQQWSSNPFTFGCGTKLEIK
notes: disulfide-stabilized anti-CD3 scFv Ab9; ROR1 arm Ab1; valency 2/2
B3: Bispecific construct 4 (bispecific antibody, human IgG1, kappa)
heavy: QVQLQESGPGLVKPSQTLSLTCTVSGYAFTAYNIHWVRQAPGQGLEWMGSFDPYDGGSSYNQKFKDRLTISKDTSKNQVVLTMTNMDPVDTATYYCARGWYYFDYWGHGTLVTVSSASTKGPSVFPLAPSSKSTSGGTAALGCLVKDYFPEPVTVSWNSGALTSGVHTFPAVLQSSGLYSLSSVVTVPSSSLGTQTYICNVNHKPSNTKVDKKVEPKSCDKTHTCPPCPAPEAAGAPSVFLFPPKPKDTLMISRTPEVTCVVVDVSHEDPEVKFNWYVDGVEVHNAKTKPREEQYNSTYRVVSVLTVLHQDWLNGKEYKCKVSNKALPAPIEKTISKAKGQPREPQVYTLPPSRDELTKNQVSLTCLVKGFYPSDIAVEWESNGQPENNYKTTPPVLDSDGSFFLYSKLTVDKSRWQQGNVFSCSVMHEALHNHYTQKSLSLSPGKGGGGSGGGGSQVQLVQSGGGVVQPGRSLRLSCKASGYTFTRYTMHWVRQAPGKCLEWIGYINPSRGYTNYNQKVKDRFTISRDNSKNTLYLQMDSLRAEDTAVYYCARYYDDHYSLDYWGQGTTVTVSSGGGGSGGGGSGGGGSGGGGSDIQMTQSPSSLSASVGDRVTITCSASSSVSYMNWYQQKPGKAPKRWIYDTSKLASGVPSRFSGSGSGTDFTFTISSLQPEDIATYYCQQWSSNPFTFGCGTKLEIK
light: DIVMTQTPLSLPVTPGEPASISCRASKSISKYLAWYQQKPGQAPRLLIYSGSTLQSGIPPRFSGSGYGTDFTLTINNIESEDAAYYFCQQHDESPYTFGEGTKVEIKRTVAAPSVFIFPPSDEQLKSGTASVVCLLNNFYPREAKVQWKVDNALQSGNSQESVTEQDSKDSTYSLSSTLTLSKADYEKHKVYACEVTHQGLSSPVTKSFNRGEC
notes: as for B1
B4: Bispecific construct 5 (bispecific antibody, human IgG1, kappa)
heavy: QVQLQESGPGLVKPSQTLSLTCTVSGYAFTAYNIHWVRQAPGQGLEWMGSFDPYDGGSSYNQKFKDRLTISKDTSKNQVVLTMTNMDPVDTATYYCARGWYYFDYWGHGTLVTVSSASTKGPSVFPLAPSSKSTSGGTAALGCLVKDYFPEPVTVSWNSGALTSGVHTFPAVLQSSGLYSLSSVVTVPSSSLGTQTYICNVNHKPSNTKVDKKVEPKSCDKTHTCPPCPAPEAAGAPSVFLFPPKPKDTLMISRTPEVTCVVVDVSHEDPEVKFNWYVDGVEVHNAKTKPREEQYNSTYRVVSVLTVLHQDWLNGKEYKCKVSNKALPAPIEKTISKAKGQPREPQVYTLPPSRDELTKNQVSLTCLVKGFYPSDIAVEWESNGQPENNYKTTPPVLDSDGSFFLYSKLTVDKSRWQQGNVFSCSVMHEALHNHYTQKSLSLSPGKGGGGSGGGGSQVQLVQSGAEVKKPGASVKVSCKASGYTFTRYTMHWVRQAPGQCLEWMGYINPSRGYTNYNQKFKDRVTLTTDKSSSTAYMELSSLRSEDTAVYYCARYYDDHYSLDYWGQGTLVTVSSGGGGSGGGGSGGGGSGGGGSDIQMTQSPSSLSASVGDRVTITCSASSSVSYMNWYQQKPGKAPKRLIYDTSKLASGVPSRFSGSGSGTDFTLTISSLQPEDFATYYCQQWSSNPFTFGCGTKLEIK
light: B3 light
notes: as for B2
B5: Bispecific construct 14 (bispecific antibody, human IgG1, kappa)
heavy 1: not shown
heavy 2: QVQLVQSGAEVKKPGASVKVSCKASGYTFTRYTMHWVRQAPGQGLEWMGYINPSRGYTNYNQKFKDRVTLTTDKSSSTAYMELSSLRSEDTAVYYCARYYDDHYSLDYWGQGTLVTVSSGGGGSGGGGSGGGGSGGGGSDIQMTQSPSSLSASVGDRVTITCSASSSVSYMNWYQQKPGKAPKRLIYDTSKLASGVPSRFSGSGSGTDFTLTISSLQPEDFATYYCQQWSSNPFTFGQGTKLEIKEPKSSDKTHTCPPCPAPEAAGAPSVFLFPPKPKDTLMISRTPEVTCVVVDVSHEDPEVKFNWYVDGVEVHNAKTKPREEQYNSTYRVVSVLTVLHQDWLNGKEYKCKVSNKALPAPIEKTISKAKGQPREPQVYTLPPSRDELTKNQVSLSCAVKGFYPSDIAVEWESNGQPENNYKTTPPVLDSDGSFFLVSKLTVDKSRWQQGNVFSCSVMHEALHNHYTQKSLSLSPGK
light: B3 light
notes: anti-CD3 scFv Ab9; ROR1 arm Ab1; valency 1/1
B6: Bispecific construct 15 (bispecific antibody, human IgG1, kappa)
heavy 1: not shown
heavy 2: EVQLVESGGGLVQPGGSLRLSCAASGFTFNTYAMNWVRQAPGKGLEWVARIRSKYNNYATYYADSVKGRFTISRDDSKNTLYLQMNSLRAEDTAVYYCVRHGNFGNSYVSYFAYWGQGTTVTVSSGGGGSGGGGSGGGGSGGGGSEIVVTQSPATLSVSPGERATLSCRSSTGAVTAANYANWVQEKPGQAFRGLIGGANKRAPGVPARFSGSLSGDEATLTISSLQSEDFAVYYCALFYSNLWVFGQGTKLEIKEPKSSDKTHTCPPCPAPEAAGAPSVFLFPPKPKDTLMISRTPEVTCVVVDVSHEDPEVKFNWYVDGVEVHNAKTKPREEQYNSTYRVVSVLTVLHQDWLNGKEYKCKVSNKALPAPIEKTISKAKGQPREPQVYTLPPSRDELTKNQVSLSCAVKGFYPSDIAVEWESNGQPENNYKTTPPVLDSDGSFFLVSKLTVDKSRWQQGNVFSCSVMHEALHNHYTQKSLSLSPGK
light: B3 light
notes: anti-CD3 scFv Ab10 (SP34-based); ROR1 arm Ab1; valency 1/1
B7: Bispecific construct 3 (bispecific antibody, human IgG1, kappa)
heavy: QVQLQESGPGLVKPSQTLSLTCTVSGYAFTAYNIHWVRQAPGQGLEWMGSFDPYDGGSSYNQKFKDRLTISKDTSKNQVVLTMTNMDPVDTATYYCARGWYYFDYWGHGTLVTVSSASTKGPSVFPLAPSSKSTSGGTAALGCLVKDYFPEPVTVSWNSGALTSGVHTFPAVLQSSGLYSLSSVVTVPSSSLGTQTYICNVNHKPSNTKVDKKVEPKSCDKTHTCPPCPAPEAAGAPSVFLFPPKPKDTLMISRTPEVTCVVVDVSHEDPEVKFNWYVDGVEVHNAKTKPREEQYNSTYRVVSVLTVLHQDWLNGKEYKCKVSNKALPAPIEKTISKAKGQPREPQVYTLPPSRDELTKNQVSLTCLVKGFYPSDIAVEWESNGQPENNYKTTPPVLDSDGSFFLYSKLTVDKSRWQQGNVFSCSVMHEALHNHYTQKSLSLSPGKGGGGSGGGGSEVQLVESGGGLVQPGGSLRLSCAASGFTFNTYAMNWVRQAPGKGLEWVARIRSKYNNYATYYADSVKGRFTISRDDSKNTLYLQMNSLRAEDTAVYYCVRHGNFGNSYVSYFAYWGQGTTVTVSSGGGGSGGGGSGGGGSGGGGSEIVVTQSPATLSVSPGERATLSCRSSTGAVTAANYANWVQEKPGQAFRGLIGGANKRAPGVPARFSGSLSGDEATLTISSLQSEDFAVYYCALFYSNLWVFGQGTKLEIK
light: B3 light
notes: anti-CD3 scFv Ab10 (SP34-based); ROR1 arm Ab1; valency 2/2
B8: Bispecific construct 6 (bispecific antibody, human IgG1, kappa)
heavy: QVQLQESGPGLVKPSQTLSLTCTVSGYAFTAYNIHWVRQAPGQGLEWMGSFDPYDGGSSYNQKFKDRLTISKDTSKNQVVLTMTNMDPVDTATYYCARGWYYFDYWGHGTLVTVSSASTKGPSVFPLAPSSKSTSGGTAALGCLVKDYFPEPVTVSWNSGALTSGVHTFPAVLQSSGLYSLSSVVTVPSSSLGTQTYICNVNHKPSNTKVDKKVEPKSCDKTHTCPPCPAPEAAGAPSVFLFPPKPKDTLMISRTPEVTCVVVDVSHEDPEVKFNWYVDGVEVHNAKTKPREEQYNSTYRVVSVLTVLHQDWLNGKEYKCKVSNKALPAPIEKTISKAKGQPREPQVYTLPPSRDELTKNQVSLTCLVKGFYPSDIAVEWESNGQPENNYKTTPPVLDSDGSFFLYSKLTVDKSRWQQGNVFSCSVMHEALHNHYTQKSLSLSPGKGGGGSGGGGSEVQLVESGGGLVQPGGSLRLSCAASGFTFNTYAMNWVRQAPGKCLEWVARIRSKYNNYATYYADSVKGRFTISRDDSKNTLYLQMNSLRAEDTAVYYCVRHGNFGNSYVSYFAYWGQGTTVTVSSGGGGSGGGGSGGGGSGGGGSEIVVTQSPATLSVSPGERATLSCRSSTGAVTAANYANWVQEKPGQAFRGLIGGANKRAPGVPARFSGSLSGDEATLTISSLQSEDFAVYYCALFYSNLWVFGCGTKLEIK
light: B3 light
notes: disulfide-stabilized anti-CD3 scFv Ab10; ROR1 arm Ab1; valency 2/2

How the values were obtained:
[1] = molecular target: T1, soluble biotinylated human ROR1 extracellular domain (human, UniProt Q01973 30-406, biotinylated with EZ-Link Sulfo-NHS-LC-Biotin at a 1:5 molar ratio); experiment: ELISA, captured construct, biotinylated ROR1 titrated
T1 construct: Acro Biosystems cat; whole entry named; also called b-ROR1; soluble b-ROR1
Procedure: To measure the binding of bispecific constructs to soluble ROR1, a 96-well Costar-3366 plate was coated with 50 μL/well of 2 μg/mL goat anti-human kappa (Southern Biotech cat. #2060-01) in PBS overnight at 4° C. The plate was rinsed once with PBS-T, blocked with 100 μL/well 5% M-P for 1 h at 25° C., rinsed once with PBS-T, and 2 μg/mL of the bispecific binding molecule was added and incubated for 1 h at 25° C. The plate was washed three times with PBS-T. Biotinylated ROR1 was diluted serially, 3-fold in 5% M-P and was incubated for 1 h at 25° C. (50 μL/well). The plate was washed three times with PBS-T. To detect the binding of b-ROR1, 50 μL/well Neutravidin-HRP (Pierce cat. #31030) diluted 1:5000 in 1% BSA-PBS was added for 1 h at 25° C. The plate was washed three times with PBS-T, then developed with 50 μL/well 1-Step Ultra TMB-ELISA (Thermo Scientific cat. #34028). The reaction was terminated by the addition of 2 N H₂SO₄ and the A450 was determined using a Spectramax plate reader.
The stronger binding observed with bivalent constructs versus monovalent constructs in cell assays and ELISAs in which the antigen is immobilized is consistent with an avidity effect. To determine if this was the case, binding to soluble monomeric ROR1 was assessed by immobilizing the bispecific binding molecules on a microtiter plate coated with goat anti-human kappa antibody and titrating biotinylated RORL. All bispecific binding molecules were active in this format (FIG. 7), and in most cases, there were no notable differences between monovalent and bivalent constructs.

[2] = molecular target: T2, recombinant human ROR1 extracellular domain (human, UniProt Q01973 30-406); experiment: ELISA, immobilised ROR1 ECD, construct titrated
T2 construct: Bought (Acro Biosystems cat. R01-H522Y); whole entry named; also called ROR1-ECD; immobilized ROR1
Procedure: A 96-well Costar-3366 plate was coated with 50 μL/well of 2 μg/mL […] (Acro Biosystems cat. #R01-H522Y) in PBS overnight at 4° C. The plate was rinsed once with PBS containing 0.05% Tween 20 (PBS-T) and blocked with 100 μL/well of 5% non-fat milk in PBS (5% M-P) for 1 h at 25° C. Antibody samples were serially diluted 2-fold using 5% M-P and were incubated for 1 h at 25° C. (50 μL/well). The plate was washed three times with PBS-T and 50 μL/well anti-human kappa, HRP conjugate (Southern Biotech cat. #2060-05) diluted 10,000-fold in 5% M-P was added for 1 h at 25° C. The plate was washed three times with PBS-T, developed with 50 μL/well 1-Step Ultra TMB-ELISA (Thermo Scientific cat. #34028). The reaction was terminated by the addition of 2 N H₂SO₄ and the A450 was determined using a Spectramax plate reader.
Next, the binding of bispecific binding molecules to ROR was characterized by ELISA using recombinantly-expressed extracellular domain of RORL. ROR was immobilized on a microtiter plate, the bispecific binding molecules were titrated, and binding was quantitated with an anti-human kappa-HRP reagent. Consistent with the cell binding data, all constructs bound ROR1 in a concentration-dependent manner (FIG. 6). Moreover, monovalent ROR1 constructs 13-15 bound less tightly than all but two of the bivalent constructs.

[3] = molecular target: T3, human CD3 on Jurkat cells (human, UniProt P09693 23-182; P04234 22-171; P07766 23-207); experiment: flow cytometry on Jurkat cells
T3 construct: GenBank NP_000064.1, NP_000723.1, NP_000724.1
Procedure: To quantitate CD3 binding, 2.5E5 Jurkat cells were used for each condition. A 2× stock of the cells was made by resuspending the cells to 5E6/mL by placing in 50 μL of PBS with 2% FBS. Next, the cells were diluted with an equal volume of 2× stock of the test bispecific binding molecule. The cells and antibody were co-incubated on ice for 20 min. The cells were then washed 3 times with 300 μL of FACS buffer and were resuspended in 100 μL of goat anti-human Fc-PE conjugate antibody (Invitrogen cat. #12499882) at 1:500 dilution and incubated on ice with reduced light for 20 min. The cells were then washed 3 times with 300 μL of FACS buffer and fixed with 2% paraformaldehyde for 10 min at 25° C. The cells were washed 2 times with 300 μL of FACS buffer and analyzed on a Miltenyi MACSQuant Analyzer.

[4] = molecular target: T4, human ROR1 on cells (human, UniProt Q01973 30-937); experiment: flow cytometry on JeKo-1 cells
T4 construct: Cell-surface ROR1; also called ROR1-transfected MEC cells; JeKo-1 cells
Procedure: ROR1 binding was quantitated using both ROR1-transfected MEC cells and JeKo-1 cells. For each condition, 2.5E5 cells were used. The cells were placed in 50 μL of PBS with 2% FBS. Next, the cells were diluted with an equal volume of 2× stock of the test bispecific binding molecule. The cells and antibody were co-incubated on ice for 20 min. The cells were then washed 3 times with 300 μL of FACS buffer and were resuspended in 100 μL of anti-human Fc-PE conjugate antibody (Invitrogen cat. #12499882) and incubated on ice with reduced light for 20 min. Subsequently, the cells were washed 3 times with 300 μL of FACS buffer and fixed with 2% paraformaldehyde for 10 min at 25° C. The cells then were washed 2 times with 300 μL of FACS buffer and analyzed on a Miltenyi MACSQuant Analyzer.
The influence of ROR expression levels on binding of the bispecific constructs was assessed by flow cytometry using JeKo-1 cells. JeKo-1 cells express lower levels of ROR (˜13,000 copies/cell) than the ROR1-transfected MEC cells (˜56,000 copies/cell). All constructs bound JeKo-1 cells (FIG. 5). […] Specifically, monovalent ROR1 constructs generally bound more weakly than the bivalent constructs (FIG. 5, Panel A, compare constructs 14 and 15 with other constructs; FIG. 5, Panel C, compare constructs 15-17 with other constructs).

[5] = molecular target: T4, human ROR1 on cells; experiment: cell-based or functional assay

T4 sequence (Q01973 30-937 limits assumed): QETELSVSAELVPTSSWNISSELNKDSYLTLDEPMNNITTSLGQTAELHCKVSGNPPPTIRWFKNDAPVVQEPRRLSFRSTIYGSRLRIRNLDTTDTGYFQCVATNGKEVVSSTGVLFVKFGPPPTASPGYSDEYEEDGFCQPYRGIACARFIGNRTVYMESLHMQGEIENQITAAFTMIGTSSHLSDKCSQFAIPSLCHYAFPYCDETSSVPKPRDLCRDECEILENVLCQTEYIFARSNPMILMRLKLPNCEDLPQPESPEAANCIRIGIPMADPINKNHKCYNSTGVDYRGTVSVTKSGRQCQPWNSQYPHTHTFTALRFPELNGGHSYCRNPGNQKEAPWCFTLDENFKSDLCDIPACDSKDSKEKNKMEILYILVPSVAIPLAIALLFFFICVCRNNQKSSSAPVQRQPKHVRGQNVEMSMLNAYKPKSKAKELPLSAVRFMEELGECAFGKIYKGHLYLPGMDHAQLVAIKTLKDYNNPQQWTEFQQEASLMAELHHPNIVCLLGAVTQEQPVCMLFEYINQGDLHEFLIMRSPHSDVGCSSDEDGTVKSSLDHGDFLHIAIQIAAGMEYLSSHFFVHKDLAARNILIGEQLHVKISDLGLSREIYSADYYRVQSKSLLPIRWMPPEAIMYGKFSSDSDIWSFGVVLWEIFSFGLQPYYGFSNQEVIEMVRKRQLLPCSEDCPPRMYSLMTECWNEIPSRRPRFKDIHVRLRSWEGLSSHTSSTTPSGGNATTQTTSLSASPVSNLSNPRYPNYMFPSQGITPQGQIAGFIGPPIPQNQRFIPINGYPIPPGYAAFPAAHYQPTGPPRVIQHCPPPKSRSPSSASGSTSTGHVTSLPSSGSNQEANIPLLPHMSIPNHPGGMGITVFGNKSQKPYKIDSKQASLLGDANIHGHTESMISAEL
T3 sequence (P09693 23-182 limits assumed, chain 1 of 3): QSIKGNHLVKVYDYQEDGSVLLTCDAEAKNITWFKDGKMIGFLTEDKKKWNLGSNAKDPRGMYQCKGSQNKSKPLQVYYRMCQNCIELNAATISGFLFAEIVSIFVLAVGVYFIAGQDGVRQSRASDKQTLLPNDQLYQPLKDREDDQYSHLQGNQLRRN
T3 sequence (P04234 22-171 limits assumed, chain 2 of 3): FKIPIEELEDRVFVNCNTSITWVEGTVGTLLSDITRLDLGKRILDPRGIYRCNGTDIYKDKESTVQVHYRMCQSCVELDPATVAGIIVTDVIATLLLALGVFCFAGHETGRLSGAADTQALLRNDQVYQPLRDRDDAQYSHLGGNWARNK
T3 sequence (P07766 23-207 limits assumed, chain 3 of 3): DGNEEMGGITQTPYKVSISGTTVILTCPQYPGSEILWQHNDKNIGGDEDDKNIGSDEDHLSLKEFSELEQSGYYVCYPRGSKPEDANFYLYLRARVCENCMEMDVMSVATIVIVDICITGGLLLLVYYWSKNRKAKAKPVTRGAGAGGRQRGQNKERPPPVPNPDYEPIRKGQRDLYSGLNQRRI
T2 sequence (Q01973 30-406 limits assumed): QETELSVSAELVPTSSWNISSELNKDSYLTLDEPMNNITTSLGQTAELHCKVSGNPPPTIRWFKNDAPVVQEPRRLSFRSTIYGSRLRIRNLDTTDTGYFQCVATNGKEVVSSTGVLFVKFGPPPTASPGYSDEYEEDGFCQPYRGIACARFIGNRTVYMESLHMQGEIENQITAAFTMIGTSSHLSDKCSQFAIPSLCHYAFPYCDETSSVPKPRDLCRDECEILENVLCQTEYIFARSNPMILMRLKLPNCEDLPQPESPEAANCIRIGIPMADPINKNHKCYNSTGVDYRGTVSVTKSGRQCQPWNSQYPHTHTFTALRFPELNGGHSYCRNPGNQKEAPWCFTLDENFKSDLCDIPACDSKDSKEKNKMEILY
T1 sequence (Q01973 30-406 limits assumed): as above

Binder | Kd [1] | Kd [2] | binding result [3] | EC50 (read off the curve) [4] | EC50, LDH release, ROR1-transfected MEC [5] | Max. LDH Release, ROR1-transfected MEC [5]
B1 | 0.094 nM | 0.144 nM | binds |  |  | 
B2 | 0.073 nM | 0.092 nM | binds |  |  | 
B3 | 0.105 nM | 0.085 nM | binds | ~0.02 µg/mL |  | 
B4 | 0.07 nM | 0.055 nM | binds | ~0.02 µg/mL |  | 
B5 | 0.109 nM | 0.408 nM | binds |  | 5 ng/mL and 40 pM | 48%
B6 | 0.157 nM | 0.301 nM | binds |  |  | 
B7 | 0.147 nM | 0.233 nM | binds |  |  | 
B8 | 0.082 nM | 0.033 nM | binds |  |  | 
